# Data taken from paper PMC4911334.
# B1: double-knot toxin (DkTx) (peptide)
# chain: DCAKEGEVCSWGKKCCDLDNFYCPMEFIPHCKKYKPYVPVTTNCAKEGEVCGWGSKCCHGLDCPLAFIPYCEKYRGRND
# Molecular target: minimal functional rat TRPV1 construct, tetramer reconstituted in lipid nanodisc (rat) (UniProt O35433)
# Assay: cryo-EM structure
# UniProt O35433, sequence (O35433 whole entry): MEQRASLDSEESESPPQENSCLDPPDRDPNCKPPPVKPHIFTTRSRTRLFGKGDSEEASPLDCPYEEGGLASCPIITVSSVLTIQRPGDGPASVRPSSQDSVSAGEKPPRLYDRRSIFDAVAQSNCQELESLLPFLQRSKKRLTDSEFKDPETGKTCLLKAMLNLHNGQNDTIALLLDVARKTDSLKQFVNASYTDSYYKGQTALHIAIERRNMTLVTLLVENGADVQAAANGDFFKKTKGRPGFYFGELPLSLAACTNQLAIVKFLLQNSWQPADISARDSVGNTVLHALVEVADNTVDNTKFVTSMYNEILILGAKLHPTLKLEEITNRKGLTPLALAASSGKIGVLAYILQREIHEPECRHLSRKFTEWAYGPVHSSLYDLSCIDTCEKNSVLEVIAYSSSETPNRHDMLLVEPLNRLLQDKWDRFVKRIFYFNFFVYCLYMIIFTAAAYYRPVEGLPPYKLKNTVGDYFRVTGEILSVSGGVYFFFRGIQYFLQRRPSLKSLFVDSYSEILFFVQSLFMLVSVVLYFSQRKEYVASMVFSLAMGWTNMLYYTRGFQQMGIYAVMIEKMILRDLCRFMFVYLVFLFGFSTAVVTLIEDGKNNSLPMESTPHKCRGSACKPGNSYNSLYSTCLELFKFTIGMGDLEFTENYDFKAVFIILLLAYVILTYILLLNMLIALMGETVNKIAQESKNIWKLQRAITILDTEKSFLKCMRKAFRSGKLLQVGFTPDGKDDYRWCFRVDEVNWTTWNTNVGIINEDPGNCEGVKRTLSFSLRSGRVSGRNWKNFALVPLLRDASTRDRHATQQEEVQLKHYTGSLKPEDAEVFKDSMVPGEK
binder,measurement,value
B1,stoichiometry N (DkTx per TRPV1 tetramer),2
